Measurements reported in patent US20220259328A1 (Kyowa Kirin, published 2022).

Tests used:
[1] = target: T1, monkey CD40-GST (monkey, UniProt P25942 21-193 (human entry)); test: phage ELISA on immobilized monkey CD40-GST, anti-M13-HRP detection
T1 construct: also called monkey CD40-GST protein; not shown: GST region of the N5 vector
T1 chain: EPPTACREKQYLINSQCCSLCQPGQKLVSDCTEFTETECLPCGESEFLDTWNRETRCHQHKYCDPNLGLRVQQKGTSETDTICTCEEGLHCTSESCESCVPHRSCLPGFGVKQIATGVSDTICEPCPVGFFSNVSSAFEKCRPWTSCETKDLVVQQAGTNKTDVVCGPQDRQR
Experimental: (§1) In the ELISA, MAXISORP (manufactured by NUNC, Inc.) in which the human or monkey CD40-GST in Example 1 was immobilized on each well and a portion to which the human or monkey CD40-GST is not bound was blocked using SuperBlock Blockig Buffer (manufactured by Thermo Fisher. Inc.) was used. To each well, each phage clone was added and reacted at room temperature for 30 minutes, and thereafter, each well was washed 3 times with PBS-T.

[2] = target: T2, human CD40-GST (human, UniProt P25942 21-193); test: phage ELISA on immobilized human CD40-GST, anti-M13-HRP detection
T2 construct: also called human CD40-GST protein; not shown: GST region of the N5 vector
Experimental: as §1

B1: R1090S55A (monoclonal phage clone displaying scFv) (scFv, V domains shown)
VH: EVQLVQSGAEVKKPGESLKISCKGSGYSFIIYWIGWVRQMPGKGLEWMGIIYPNDADTRYSPSFQGQVTISADKSISTAYLQWSSLKASDTAMYYCVRLGTRDWFDPWGQGTLVTVSS
VL: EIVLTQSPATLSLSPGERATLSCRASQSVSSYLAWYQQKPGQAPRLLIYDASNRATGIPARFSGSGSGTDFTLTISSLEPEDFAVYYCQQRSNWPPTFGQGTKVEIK
notes: also called anti-CD40 antibody R1090S55A
- binding result [1]: binds
- binding result [2]: binds
